From the supplement of paper PMC9112550, “Optimization of the antimicrobial peptide Bac7 by deep mutational scanning” (BMC Biology, 2022)

test system: Escherichia coli TOP10; assay: shrunken log2 fold change of peptide-encoding DNA abundance (4.5 h post-induction vs induction); higher = less antimicrobial activity (less host growth inhibition); conditions: time post-induction: 4.5 h; library: site-saturation at positions 5, 18, 19, 20
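Note: peptides expressed intracellularly from a pBAD plasmid library in pooled LB shake-flask culture, induced with 0.3% L-arabinose, DNA abundance read by NGS, three biological replicates, DESeq2 with apeglm shrinkage.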

Row | Sequence | shrunken log2 fold change
1 | RRIRFRPPRLPRPRPRPAQTPRP | 0.0962
2 | RRIRSRPPRLPRPRPRPHWWPRP | 0.359
3 | RRIRHRPPRLPRPRPRPAERPRP | 0.0935
4 | RRIRQRPPRLPRPRPRPNKKPRP | -0.0406
5 | RRIRHRPPRLPRPRPRPPDRPRP | 0.385
6 | RRIRERPPRLPRPRPRPHYLPRP | -0.139
7 | RRIRFRPPRLPRPRPRPGYFPRP | -0.278
8 | RRIRERPPRLPRPRPRPKLFPRP | -0.0593
9 | RRIRQRPPRLPRPRPRPRICPRP | -0.083
10 | RRIRMRPPRLPRPRPRPNRGPRP | 0.218
11 | RRIRRRPPRLPRPRPRPFVQPRP | -0.0288
12 | RRIRSRPPRLPRPRPRPMCFPRP | -0.149
13 | RRIRSRPPRLPRPRPRPKWAPRP | -0.117
14 | RRIRARPPRLPRPRPRPVKPPRP | 0.236
15 | RRIRFRPPRLPRPRPRPQALPRP | -0.137
16 | RRIRHRPPRLPRPRPRPPVNPRP | 0.0303
17 | RRIRMRPPRLPRPRPRPFPSPRP | -0.18
18 | RRIRNRPPRLPRPRPRPWYYPRP | -0.122
19 | RRIRLRPPRLPRPRPRPHKVPRP | -0.18
20 | RRIRARPPRLPRPRPRPLNYPRP | 0.0659
21 | RRIRERPPRLPRPRPRPDHYPRP | -0.738
22 | RRIRVRPPRLPRPRPRPRIVPRP | 0.166
23 | RRIRLRPPRLPRPRPRPEREPRP | 0.0872
24 | RRIRVRPPRLPRPRPRPDRFPRP | 0.0559
25 | RRIRQRPPRLPRPRPRPGLRPRP | 0.285

Row | Sequence | shrunken log2 fold change
26 | RRIRIRPPRLPRPRPRPRCRPRP | -0.164
27 | RRIRLRPPRLPRPRPRPMQYPRP | -0.208
28 | RRIRNRPPRLPRPRPRPCLFPRP | -0.608
29 | RRIRPRPPRLPRPRPRPATMPRP | 0.0647
30 | RRIRQRPPRLPRPRPRPTSNPRP | -0.64
31 | RRIRWRPPRLPRPRPRPQKPPRP | 0.0546
32 | RRIRTRPPRLPRPRPRPRYIPRP | -0.368
33 | RRIRCRPPRLPRPRPRPGIRPRP | -0.107
34 | RRIRARPPRLPRPRPRPANRPRP | 0.467
35 | RRIRQRPPRLPRPRPRPVAAPRP | 0.51
36 | RRIRHRPPRLPRPRPRPPCRPRP | -0.0923
37 | RRIRFRPPRLPRPRPRPKMNPRP | -0.345
38 | RRIRCRPPRLPRPRPRPNMWPRP | -0.0109
39 | RRIRGRPPRLPRPRPRPHQHPRP | 0.112
40 | RRIRLRPPRLPRPRPRPKDQPRP | -0.271
41 | RRIRCRPPRLPRPRPRPYMPPRP | -0.404
42 | RRIRVRPPRLPRPRPRPRHYPRP | 0.645
43 | RRIRQRPPRLPRPRPRPTNKPRP | -0.579
44 | RRIRYRPPRLPRPRPRPGKDPRP | -0.148
45 | RRIRTRPPRLPRPRPRPNCVPRP | 0.00481
46 | RRIRMRPPRLPRPRPRPDTKPRP | 0.0742
47 | RRIRMRPPRLPRPRPRPQKIPRP | 0.255
48 | RRIRIRPPRLPRPRPRPDNFPRP | -0.0215
49 | RRIRVRPPRLPRPRPRPEVNPRP | -0.0796
50 | RRIRPRPPRLPRPRPRPDCAPRP | 0.354

Row | Sequence | shrunken log2 fold change
51 | RRIRRRPPRLPRPRPRPTRKPRP | 0.498
52 | RRIRIRPPRLPRPRPRPQWKPRP | -0.186
53 | RRIRSRPPRLPRPRPRPWNKPRP | -0.0158
54 | RRIRGRPPRLPRPRPRPADYPRP | 0.025
55 | RRIRCRPPRLPRPRPRPCVCPRP | -0.128
56 | RRIRYRPPRLPRPRPRPLYEPRP | -0.562
57 | RRIRFRPPRLPRPRPRPFLFPRP | -0.457
58 | RRIRMRPPRLPRPRPRPFDPPRP | 0.0446
59 | RRIRERPPRLPRPRPRPCLMPRP | -0.0535
60 | RRIRIRPPRLPRPRPRPMPGPRP | -0.172
61 | RRIRFRPPRLPRPRPRPHNIPRP | -0.501
62 | RRIRKRPPRLPRPRPRPSELPRP | 0.141
63 | RRIRTRPPRLPRPRPRPKRFPRP | -0.00233
64 | RRIRSRPPRLPRPRPRPMYDPRP | 0.0313
65 | RRIRQRPPRLPRPRPRPKFYPRP | -0.206
66 | RRIRSRPPRLPRPRPRPRYWPRP | 0.0181
67 | RRIRSRPPRLPRPRPRPTCFPRP | 0.284
68 | RRIRFRPPRLPRPRPRPQFEPRP | -0.19
69 | RRIRLRPPRLPRPRPRPTKRPRP | 0.00619
70 | RRIRPRPPRLPRPRPRPAAWPRP | 0.377
71 | RRIRIRPPRLPRPRPRPMISPRP | -0.00209
72 | RRIRDRPPRLPRPRPRPRLGPRP | 0.829
73 | RRIRPRPPRLPRPRPRPMPYPRP | -0.41
74 | RRIRFRPPRLPRPRPRPYAGPRP | -0.208
75 | RRIRQRPPRLPRPRPRPMHIPRP | -0.377

Row | Sequence | shrunken log2 fold change
76 | RRIRLRPPRLPRPRPRPSYEPRP | -0.496
77 | RRIRTRPPRLPRPRPRPAGHPRP | -0.0189
78 | RRIRYRPPRLPRPRPRPHANPRP | -0.16
79 | RRIRYRPPRLPRPRPRPCKYPRP | -0.627
80 | RRIRRRPPRLPRPRPRPAYLPRP | -0.35
81 | RRIRKRPPRLPRPRPRPAYTPRP | -0.0132
82 | RRIRQRPPRLPRPRPRPPKTPRP | 0.113
83 | RRIRHRPPRLPRPRPRPEYFPRP | -0.0339
84 | RRIRDRPPRLPRPRPRPYRKPRP | -0.0111
85 | RRIRTRPPRLPRPRPRPPDRPRP | 0.257
86 | RRIRIRPPRLPRPRPRPFKNPRP | -0.188
87 | RRIRFRPPRLPRPRPRPGMRPRP | 0.44
88 | RRIRSRPPRLPRPRPRPNQQPRP | 0.121
89 | RRIRTRPPRLPRPRPRPRENPRP | 0.277
90 | RRIRARPPRLPRPRPRPHLRPRP | 0.325
91 | RRIRCRPPRLPRPRPRPAANPRP | 0.0789
92 | RRIRWRPPRLPRPRPRPQWWPRP | 0.00856
93 | RRIRQRPPRLPRPRPRPNWFPRP | -0.151
94 | RRIRARPPRLPRPRPRPIWSPRP | 1.14
95 | RRIRIRPPRLPRPRPRPWRQPRP | 0.0165
96 | RRIRFRPPRLPRPRPRPVTGPRP | 0.0131
97 | RRIRERPPRLPRPRPRPEEDPRP | -0.058
98 | RRIRFRPPRLPRPRPRPMLQPRP | -0.152
99 | RRIRMRPPRLPRPRPRPYFIPRP | -0.413
100 | RRIRTRPPRLPRPRPRPHGPPRP | 0.157

Row | Sequence | shrunken log2 fold change
101 | RRIRERPPRLPRPRPRPNKPPRP | -0.0937
102 | RRIRSRPPRLPRPRPRPGFYPRP | -0.312
103 | RRIRERPPRLPRPRPRPSYQPRP | -0.469
104 | RRIRWRPPRLPRPRPRPEKWPRP | 0.0948
105 | RRIRFRPPRLPRPRPRPWPDPRP | 0.0228
106 | RRIRGRPPRLPRPRPRPRWIPRP | 0.152
107 | RRIRCRPPRLPRPRPRPLAFPRP | -0.165
108 | RRIRVRPPRLPRPRPRPSYGPRP | -0.369
109 | RRIRARPPRLPRPRPRPHWWPRP | 0.5
110 | RRIRRRPPRLPRPRPRPIIDPRP | -0.125
111 | RRIRHRPPRLPRPRPRPIITPRP | -1.46
112 | RRIRQRPPRLPRPRPRPDNTPRP | -0.178
113 | RRIRLRPPRLPRPRPRPEARPRP | 0.142
114 | RRIRHRPPRLPRPRPRPCCCPRP | -0.421
115 | RRIRERPPRLPRPRPRPDVHPRP | -0.435
116 | RRIRPRPPRLPRPRPRPVWYPRP | -0.219
117 | RRIRYRPPRLPRPRPRPEGTPRP | -0.0176
118 | RRIRPRPPRLPRPRPRPQTEPRP | 0.0275
119 | RRIRERPPRLPRPRPRPEANPRP | -0.00156
120 | RRIRTRPPRLPRPRPRPMTSPRP | -0.168
121 | RRIRKRPPRLPRPRPRPFTRPRP | 0.0464
122 | RRIRPRPPRLPRPRPRPRDRPRP | 0.18
123 | RRIRIRPPRLPRPRPRPQKYPRP | -0.784
124 | RRIRDRPPRLPRPRPRPDDVPRP | 0.276
125 | RRIRMRPPRLPRPRPRPDFVPRP | 0.00674

Row | Sequence | shrunken log2 fold change
126 | RRIRVRPPRLPRPRPRPHAQPRP | -0.224
127 | RRIRYRPPRLPRPRPRPMHLPRP | -0.00136
128 | RRIRLRPPRLPRPRPRPQHNPRP | -0.507
129 | RRIRLRPPRLPRPRPRPASTPRP | 0.0489
130 | RRIRIRPPRLPRPRPRPWMTPRP | -0.53
131 | RRIRPRPPRLPRPRPRPQMQPRP | -0.254
132 | RRIRSRPPRLPRPRPRPDKPPRP | -0.266
133 | RRIRRRPPRLPRPRPRPDYWPRP | 0.0192
134 | RRIRMRPPRLPRPRPRPHAAPRP | 1.63
135 | RRIRHRPPRLPRPRPRPTAPPRP | 0.184
136 | RRIRMRPPRLPRPRPRPAALPRP | 0.292
137 | RRIRHRPPRLPRPRPRPMLRPRP | -0.0571
138 | RRIRYRPPRLPRPRPRPLVFPRP | -0.439
139 | RRIRHRPPRLPRPRPRPQQWPRP | -0.178
140 | RRIRRRPPRLPRPRPRPKHQPRP | 1.57
141 | RRIRLRPPRLPRPRPRPATIPRP | -0.0972
142 | RRIRARPPRLPRPRPRPTMAPRP | 0.6
143 | RRIRVRPPRLPRPRPRPEPIPRP | 0.0124
144 | RRIRVRPPRLPRPRPRPLMLPRP | -0.202
145 | RRIRFRPPRLPRPRPRPIEGPRP | 0.0922
146 | RRIRYRPPRLPRPRPRPIAFPRP | -0.564
147 | RRIRWRPPRLPRPRPRPNNNPRP | -0.514
148 | RRIRQRPPRLPRPRPRPFSHPRP | -0.127
149 | RRIRHRPPRLPRPRPRPNRRPRP | -0.00884
150 | RRIRVRPPRLPRPRPRPMGVPRP | -0.0267
